Results published in patent US20140370037A1 (published 2014).
Numbering of substitutions follows the chain as printed.

T1: human DLL3 antigen (human, UniProt Q9NYJ7 27-492, limits assumed)
T1 construct: also called immobilized human DLL3; recombinant human DLL3
T1 sequence (looked up): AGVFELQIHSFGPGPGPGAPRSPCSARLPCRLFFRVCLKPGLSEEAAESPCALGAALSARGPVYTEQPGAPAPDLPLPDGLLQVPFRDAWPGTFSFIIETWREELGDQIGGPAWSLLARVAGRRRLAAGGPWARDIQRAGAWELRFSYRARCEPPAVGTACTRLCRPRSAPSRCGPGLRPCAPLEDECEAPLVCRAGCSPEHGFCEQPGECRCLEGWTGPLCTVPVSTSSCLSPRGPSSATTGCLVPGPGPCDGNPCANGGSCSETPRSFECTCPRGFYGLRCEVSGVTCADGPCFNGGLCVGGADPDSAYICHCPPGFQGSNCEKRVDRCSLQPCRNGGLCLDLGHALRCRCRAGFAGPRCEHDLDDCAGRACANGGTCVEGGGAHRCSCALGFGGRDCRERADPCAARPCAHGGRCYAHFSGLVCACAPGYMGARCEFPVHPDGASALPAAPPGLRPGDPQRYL

B1: SC16.80 (antibody, V domains shown)
VH: EVQLQQSGPELVKPGGSKKISCKASGYSFTGYSMNWVKQSHGKNLEWIGLINPYSGGTIYNQKFKGKATLTVDKSSSTAYMELLSLTSEDSAVYYCARRSDYPLVYWGQGTLVTVSA
VL: ETTVTQSPASLSMAIGEKVTIRCITSTDIDDDMIWYQQKPGEPPKLLISEGNTLRPGVPSRFSSSGYGTDFVFTIENMLSEDVADYYCLKRDDLPYTFGGGTQVEIKR
notes: murine mAb
B2: SC16.65 (antibody, V domains shown)
VH: QVTLKESGPGILQPSQTLSLTCSFSGFSLSTSGMGVGWIRQPSGKGLEWLALIWWDDVKRYNPALKSRLTISKDASSSQVFLKIASVDTADTATYYCARIASYDYDVVYAMDYWGQGTSVSVSS
VL: QIVLTQSPALMSASPGEKVTMTCSVTSSVSYMYWYQQKPRSSPKPWIYLTSNLASGVPARFSGSGSGTSYSLTISSVEAEDAATYYCQQWRNNPFTFGSGTKVEIK
notes: murine mAb
B3: SC16.57 (antibody, V domains shown)
VH: EVKLVESGGDLVKPGGSLKLSCAASGFAFSSYDMSWVRQTPEKRLEWVATISSGGSYTYYPDSVKGRFTISRDNVRDTLYLQMSSLRSEDTALYYCARQAIGTYFDYWGQGTTLTVSS
VL: DIVMTQSHKFMSISVGDRVSITCKASQDVSIFVAWYQQKPGQSPKLLIYSASYRYTGVPDRFTGSGSGTDFIFTISSVQAEDLAVYYCQQHYGTPFTFGSGTKLKIR
notes: murine mAb
B4: SC16.63 (antibody, V domains shown)
VH: QVQLQQSGTELLRPGASVKISCKATGYTFSSYWMEWVKQRPGHGLEWIGEILPGSGTTQYNEKFKGKATFTADTSSNTAYMHLSSLTSEDSAVYYCARGTNSLWGQGTLVTVSA
VL: QIVLTQSPAIMSASPGEKVTMTCSASSSVSYMYWYQQKSGTSPKRWIYDTSKLASGVPARFSGSGSGTSYSLTISSMEAEDAATYYCQQWSSNPYTFGGGTKLEIK
notes: murine mAb
B5: SC16.56 (antibody, V domains shown)
VH: QIQLVQSGPELKKPGETVKISCKASGYTFTNYGMNWVKQAPGKGLKWMAWINTYTGEPTYADDFKGRFAFSLETSASTASLQIINLKNEDTATYFCARIGDSSPSDYWGQGTTLTVSS
VL: SIVMTQTPKFLLVSAGDRVTITCKASQSVSNDVVWYQQKPGQSPKLLIYYASNRYTGVPDRFAGSGYGTDFSFTISTVQAEDLAVYFCQQDYTSPWTFGGGTKLEIR
notes: murine mAb; also called anti-human/mouse DLL3 (SC16.56)
B6: SC16.79 (antibody, V domains shown)
VH: EVQLQQSGPELVKPGASVKISCKTSGYTFTEYTMHWVKQSHGKSLEWIGGINPNNGGTSYNQKFKGKATLTVDKSSSTAYMELRSLTSEDSAVYYCARGPAWFAYWGQGTLVTVSA
VL: DIVMSQSPSSLAVSAGEKVTMSCKSSQSLLNSRTRKNYLAWYQQKPGQSPKLLIYWASTRESGVPDRFTGSGSGTDFTLTISSVQAEDLAVYYCKQSYNLYTFGGGTKLKIKR
notes: murine mAb
B7: SC16.52 (antibody, V domains shown)
VH: QVQLKESGPGLVAPSQSLSITCAVSGFSLTSFAIHWFRKPPGKGLEWLGVIWTGGTTNYNSALMSRLSISKDNSKSQVFLKMNSLQTDDTAMYYCARDDYDNNYAMDYWGQGTSVTVSS
VL: DIQMIQSPSSMFASLGDRVSLSCRASQGIRGTLDWYQQKPNGTIKLLIYSTSNLNSGVPSRFSGSGSGSDYSLTISSLESEDFADYYCLQRNAYPLTFGAGTKLELK
notes: murine mAb
B8: SC16.72 (antibody, V domains shown)
VH: EVQLQQSGPELVKPGASVKMSCKASGYTFTSYVMHWVKQKPGQGLEWIGYINPYNDGTKYNEKFKGKATLTSDKSSSTAYMELSSLTSEDSAVYYCARLRSRAMDYWGQGTSVTVSS
VL: ENVLTQSPAIMSASLGEKVTMSCRASSSVNYMSWYQQKSDASPKLWIYYTSNLAPGVPARFSGSGSGNSYSLTISSMEGEDAATYYCQQFTSSPYTFGGGTKLEIKR
notes: murine mAb
B9: SC16.73 (antibody, V domains shown)
VH: QVQLQQSGAELMKPGASVKISCKANGYTFSSYWIEWLRQRPGHGLEWIGEILPGSDNSNYNEKFKGKATFTADTSSNTAYMQLSSLTSEESAVYYCTRGLRRDGSYYYVMEHWGQGTSVTVSS
VL: DIQMTQSPSSLSASLGERVSLTCRASQDIGYSLNWLQQEPDGTIKRLIYATSSLDSGVPKRFSGSRSGSDYSLTISSLESEDFVDYYCLQYASSPWTFGGGTKLEIK
notes: murine mAb
B10: SC16.7 (antibody, V domains shown)
VH: EVQLQQSGPELVKPGASVKISCKASGYSFTGYKMHWVKQSHVKSLEWIGRINPYNGATSYNQNFKDKATLTVDKSSSTAYMDLHSLTSEDSAVYFCARGDYRYDWFAYWGQGTLVTVSA
VL: NIMMTQSPSSLAVSAGEKVTMSCKSSQSVLYSSNQKNYLAWYQQKPGQSPKLLIYWASTRESGVPDRFTGSGSGTDFTLTISTVQVEDLAVYYCHQYLSSWTFGGGTKLEIK
notes: murine mAb
B11: SC16.61 (antibody, V domains shown)
VH: EVLLQRSGPDLVKPGASVTIPCKASGYTFTDYNMDWVKQSHGKSLEWIGNINTYNGGTIYNQKFKGKATLTVDKPSSTAYMELRSLTSEDTAVYYCARRLRYGGHYFDYWGQGTALTVSS
VL: DIVMTQSTSSLAMSVGQKVTMSCKSSQSLLNSSNQKNYLAWYQQEPGQSPKLLVSFASTRESGVPDRFTGSGSGTDFTLTISGVQAEDLAVYYCQQHYSIPLTFGAGTKLELK
notes: murine mAb
B12: SC16.78 (antibody, V domains shown)
VH: EVKLVESGGGLVKPGGSLKLSCAASGFTFGRYVMSWVRQTPEKKLEWVASITSGGTTYYPDSVKGRFTISRDNARNILYLQMSSLRSEDTAMYYCARVYYHYDDIFAYWGQGTLVTVSA
VL: DIKMTQSPSSMYASLGERVTITCKASQDINSYLSWFQQKPGRSPKTLIYRANRLVDGVPSRFSGSGSGQDYSLTISSLDYEDMGIYYCLQYDEFPFTFGSGTKLEIK
notes: murine mAb
B13: SC16.58 (antibody, V domains shown)
VH: DVQLVESGGGLVQPGGSRKLSCAASGFTFSSFGMHWVRQAPEKGLEWVAYISSGSSNIYYADTVKGRFTISRDNPKNTLFLQMTSLRSEDTAMYYCARGYYGNYDAMDYWGQGTSVTVSS
VL: DIQMTQSPASLSSSVGETVTITCRASENIYSYLAWYQQKQGKSPQLLVYNAKTLAEGVPSRFSGSGSGTQFSLKINSLQPEDFGTYYCQHHYDSPLTFGAGTKLELR
notes: murine mAb
B14: SC16.81 (antibody, V domains shown)
VH: QVQLKESGPVLVAPSQSLSITCTVSGFSLTSYGVHWVRQPPGKGLEWLGVIWAGGSTNYNSALMSRLSISKDNSKSQVFLKMNSLQTDDTAMYYCAKQGNFYAMDYWGQGTSVTVSS
VL: QIVLTQSPAIMSASLGERVTLTCTASSSVSSSYLHWYQQKPGSSPKLWIYSTSNLASGVPTRFSGSGSGTSYSLRISSMEAEDAATYYCHQYNRSPLTFGAGTKLELK
notes: murine mAb
B15: SC16.101 (antibody, V domains shown)
VL: B14 VL with L21M, T61A, G67E, R75T, S78N, N93H, L97F, A101S, L107I
V domain: QVTLKESGPGILQPSQTLSLTCSFSGFSLSTSGMGVGWIRQPSGKGLEWLAHIWWDDVKRYNPALKSRLTISKDASSSQVFLKIASVDTAETATYYCAHILDRAYYFDYWGQGTTLTVTS
notes: murine mAb
B16: SC16.55 (antibody, V domains shown)
VH: EVQLVESGGGLVQPKGSLKLSCAVSAFTFTTYAMNWVRQAPGKGLEWVARIRNKSNNYATYYADSVKDRFTISRDDSQSMLYLQMNNLKIEDTAMYYCVFYYDYVYWGQGTLVTVSA
VL: DIKMTQSPSSMYASLGERVTITCKASQDINSYLNWFQQKPGKSPKTLIYRANRLVDGVPSRFSGSGSGQDYSLTISSLEYEDMGIYYCLQYDEFPYTFGGGTKLEIKR
notes: murine mAb
B17: SC16.62 (antibody, V domains shown)
VH: EVMLVESGGDLVKPGGSLKLSCAASGFTFSSYAMSWVRQTPEKRLEWVAYISGGGDHIYYPDSVRGRFTISRDNAKDTLYLQMSSLRSEDTALYDCARVRDWYFDVWGAGTTVTVSS
VL: B16 VL with Y32F, N34S, Q38R, S63T, D70E, Y71F, M83L
notes: murine mAb
B18: SC16.67 (antibody, V domains shown)
VH: B16 VH with S7T
VL: QAVVTQESALTTSPGETVTLTCRSSTGAVTTSNYANWIQEKPDHLFTGLIGGTNNRAPGVPARFSGSLIGDKAALTITGAQTEDEAIYFCGLWYSNHLVFGGGTKLTVL
notes: murine mAb
B19: SC16.84 (antibody, V domains shown)
VH: EVQLQQSGPELVKPGASMKISCKASGYSFTGYTMNWVKQSHGKNLEWIGLINPYNGGTTYNQKFKGKATLTVDKSSSTAYMELLSLTSEDSAVYYCALGYYGNYRRYFDVWGAGTTVTVSS
VL: DIQMTQSPSSLSASLGGKVTITCKASQDIKKYIAWYQHKPGKGPRLLIHYTSTLEPGIPSRFSGSGSGRDYSFSISNLEPEDIATYYCLQYDILWTFGGGTKLEIK
notes: murine mAb
B20: SC16.88 (antibody, V domains shown)
VH: QVQLQQSGAELARPGASVKLSCKASGYTCTSYWMQWVKQRPGQGLEWIGAIYPGDGDTRYTQKFKGKATLTADKSSSTAYMQLSSLASEDSAVYYCARGRRTEAWFAYWGQGTLVTVSA
VL: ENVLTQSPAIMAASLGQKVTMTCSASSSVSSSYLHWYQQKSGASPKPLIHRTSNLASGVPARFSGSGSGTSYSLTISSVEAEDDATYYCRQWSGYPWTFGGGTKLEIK
notes: murine mAb
B21: SC16.8 (antibody, V domains shown)
VH: QAQLQQSGAELVRPGTSVKVSCKASGYAFTNYLIEWVKQRPGQGLEWIGVINPGTGGTNYNENFKGKATLTADKSSSTAYMQLSSLTSDDSAVYFCARSPYDYHEGAMDYWGQGTSVTVSS
VL: EIQMTQSPSSMSASLGDRITITCQATQDIVKNLNWYQQKPGKPPSFLIYYAIELAEGVPSRFSGSGSGSDYSLTISNLESEDFADYYCLQFYEFPFTFGAGTKLELK
notes: murine mAb

Target: T1, human DLL3 antigen
Test: ELISA or flow cytometry screen

binding result	Binder
binds	B1
binds	B2
binds	B3
binds	B4
binds	B5
binds	B6
binds	B7
binds	B8
binds	B9
binds	B10
binds	B11
binds	B12
binds	B13
binds	B14
binds	B15
binds	B16
binds	B17
binds	B18
binds	B19
binds	B20
binds	B21
